The source of these data is publication PMC3039559, “A Blue Native-PAGE analysis of membrane protein complexes in Clostridium thermocellum” (BMC Microbiology, 2011).

B1: Ferritin and Dps (Cthe_0016) (natural protein, UniProt A3DBC9 1-159, looked up)
chain: MSKLYDNLNEQMNFELESAYIYATMSAYLDSLNMKGMTHFFDEQVKEEMEHAGKIKKFLQDTGYGIKYRPLNPGDGKFDSIEDVFKKALAHEKTVTSRINDLVKQAREEGDQRVLNLLAWFVDEQIEEENMFGVLVERLERINGHWNGLYILDKELGER
notes: ferritin (annotated Ferritin and Dps), Clostridium thermocellum ATCC 27405, locus Cthe_0016, 18.6 kDa; also called spots 6 and 7; source: endogenous, C. thermocellum membrane fraction solubilised with 1.0% DDM; copies: 24
B2: Ornithine carbamoyltransferase (Cthe_1869) (enzyme, UniProt A3DGL1 1-307, looked up)
chain: MEHLISLHDLTVEDFESIFKLAEKLKRQQKEGIPHHLLKGKTLGMIFTKSSTRTRVSFEVGMYQLGGYPLFLSANDIQLGRGETIYDTAQVLSRYVDGIMIRTFAQSDVEDLARYGNVPVINGLTDLMHPCQILADLFTIYEHKGTLKGLKLAYVGDGNNVANSLLHGCAKVGMDIAVASPKGYECDSRIVEEAKEDAKASGANILLTEDPEEAIKDADVVYTDTWVSMGQESEKEERIKVFMPYQVNNTLFSKAHEDAIFLHCLPAYRGYEVTEDVIDGSQSVIFDEAENRLHVQKAIMALLMGNK
notes: ornithine carbamoyltransferase, Clostridium thermocellum ATCC 27405, locus Cthe_1869, 34 kDa; also called OTCase; spot 27; source: endogenous, C. thermocellum membrane fraction solubilised with 1.0% DDM
B3: ABC transporter related protein (Cthe_3148) (natural protein, UniProt A3DK64 1-632, looked up)
chain: MENNVKKNKKSIVLRLFKDILEFYPVMLPVAIVCILFNATISSIPAVFMQNVIAIVENNWRTGDWNAVGGRILSLVAVLVAFYTLSILSGIAYNQMMAIITQGTLKKFRCKMFARMQTLPIKYVDTHNHGDIMSVYTNDIDTLRQMISQSFPQLLLSGITVLTVFSIMVYFCLWLTIIVLIGVIAMFFVTRRVGGGSAKYFIRQQKALGRVEGFIEEMMNGQKVIKVFCREEEVKKDFDKLNEALFDDARKANRYANILAPILNNIGNVLYVFVAITGGVLLVTNAPNVSLSGLSMGISIVVPFLNMTKQFVGNINQVSQQINAVIMGLAGAQRIYELIDEEPEQDDGYVTLVNVREENGQLIECEERTGIWAWKHPHSSDGSVTYTKLMGDVRLFNVDFEYEPGKSVLHDISLYAKPGQKVAFVGATGAGKTTITNLLNRFYDIADGKIRYDGININKIKKSDLRRAVGIVLQDTNLFTGTVMDNIRYGKLDATDEECIAAAKLAGADDFIRRLPDGYYTMLTENGANLSQGQRQLISIARVAVADPPVMILDEATSSIDTRTEAIVQRGMDALMEGRTVFVIAHRLSTVKNANVIIVLDHGRIIERGTHEELIAQKGQYYQLYTGAFELE
notes: ABC transporter related protein with fused ABC and IM domains, Clostridium thermocellum ATCC 27405, locus Cthe_3148, 70 kDa; also called ABC transporter with fused ABC and IM domains; Class 1 ABC transporter; source: endogenous, C. thermocellum membrane fraction solubilised with 1.0% DDM
B4: Carboxyl transferase (Cthe_0699) (enzyme, UniProt A3DDA5 1-516, looked up)
chain: MDKVDKIGLLREKLAQVEQGGGAEKIAKQHDAGKMTARERIQALFDENSFVEIDTFVETRSIDFDMQKKKVPGDGVVTGYGSIDGRLVFVAAQDFTVIGGSLGEMHAAKITKVMDMAMKMGAPFISINDSGGARIEEGIDALKGFGDIFYRNTLASGVIPQISVIMGPCAGGAVYSPAITDFIFMVDKTSQMFITGPQVIKSVTGEDVTFEKLGGAETHNSISGVAHFRSSSEKECIEQIKKLISYLPDNNLSDVPIVPTQDDINRITDNLVDIIPQDSNKPYDMMEIITSVVDNGDFFEIQKDFAKNIIIGFGRMNGGTVGIVANQPKVAAGVLDVNSSDKAARFVRFCDAFNIPIITFTDVPGYLPGVGQEHSGVIRHGAKLLYAFSEATVPKINVIVRKAYGGAYIAMNSKHLGADMVFAWPSAEIAVMGPEGAANIIFKKDIAAADDPMETRKRLIEEYREKFSNPYVAASRGYVDDVIDPATTRIRLISALEMLASKRENRPAKKHGNIPL
notes: carboxyl transferase with two carboxyl transferase domains, Clostridium thermocellum ATCC 27405, locus Cthe_0699, 56 kDa; also called spots 4 and 15; source: endogenous, C. thermocellum membrane fraction solubilised with 1.0% DDM
B5: Polynucleotide phosphorylase/polyadenylase (Cthe_0418) (enzyme, UniProt A3DCH7 1-700, looked up)
chain: MYKTFSMELAGRTLTIETGKLAQLANGSVLVRYGDTVVLSTATASATPREGVDFFPLSVDYEERLYAVGKIPGGFIKREGKPSEKAILTARVIDRPLRPLFPKDLRNDVAIVNTVLSVDQDNSPELAALLGSSIAVSISDIPFNGPVGAVILGLIDGEVIINPTEKQKEISQMYVTLAGTRNKIVMIEAGANEVPDEVMLDAIKKGHEEIKKIVDFIDGIVKEVGKPKFEYESAEVPEEIFNAVREYAYDKMREAVLAVDKQVRDKNIDDLTKEITEHFAEVFPEMEPAIKEAIYKLEKKVVREYILEEGRRVDGRRLDEIRPLSAEVGLLPRVHGSGLFTRGQTQVLSSVTLGAMGDVQILDGIDTEETKRYMHHYNFPGFSVGEAKSSRGPGRREIGHGALAERALEPVIPSEEEFPYTIRVVSEVLMSNGSTSQGSVCGSTLALMDAGVPIKKPVAGISAGLVVDENNPDRFVTFMDIQGIEDFFGDMDFKVAGTKDGITAIQVDIKIDGLTEEIIKQAFELTRKGRLYIIDNVLLKAIPEPRKQMSKYAPKIISTTINPDKIREVIGPGGKMINKIIDETGVKIDINDDGRVYIFSSDIQAGKRARSMIEAIAKDIEPGQVFLGRVIRVTSFGAFVEFLPGKEGLVHISKLDKKRVERVEDIVRVGDQILVKVIEIDKQGRVNLSRKDAMEDEWDK
notes: polynucleotide phosphorylase/polyadenylase, Clostridium thermocellum ATCC 27405, locus Cthe_0418, 77 kDa; also called Polyribonucleotide phosphorylase; PNPase; source: endogenous, C. thermocellum membrane fraction solubilised with 1.0% DDM

This data set deals with the molecule itself. Description: native gel or EMSA; two-dimensional blue native PAGE (4-15% gel) then SDS-PAGE of the membrane fraction solubilised at 4°C in 1.0% (w/v) DDM; about 40 μg protein; spots identified by MALDI-TOF/TOF; complex mass estimated from BN-PAGE markers.
The term stoichiometry N denotes a count of units in the complex or per binding partner. As for B1, the “stoichiometry N” value was 24.
B2: the “stoichiometry N” value is 3.
The value for B3 was 2; that for B4 was 4.
For the protein B5, the “stoichiometry N” value was 2.
